From patent US20020098183A1 (published 2002) come the findings set out here.

This assay concerns the target T1, human L-selectin (on human leukocytes) (human, UniProt P14151 39-372).
T1 construct: whole, on cells; also called LECAM-1; Lam-1
T1 sequence (looked up): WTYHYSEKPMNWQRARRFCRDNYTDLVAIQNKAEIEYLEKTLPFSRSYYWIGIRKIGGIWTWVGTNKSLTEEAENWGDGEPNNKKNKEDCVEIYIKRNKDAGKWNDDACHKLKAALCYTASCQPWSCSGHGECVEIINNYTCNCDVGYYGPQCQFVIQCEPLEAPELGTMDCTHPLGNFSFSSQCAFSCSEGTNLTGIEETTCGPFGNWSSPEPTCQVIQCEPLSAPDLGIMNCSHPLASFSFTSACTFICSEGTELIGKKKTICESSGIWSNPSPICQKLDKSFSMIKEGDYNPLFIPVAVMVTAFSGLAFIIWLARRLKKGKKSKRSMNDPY
The experiment in a line: binding to leukocytes (e.g. FACS analysis). In general terms: In flow cytometry, cells or beads pass a laser one at a time.

B1: HuDreg 55 humanized anti-L-selectin antibody (antibody, human IgG4, kappa, V domains shown)
VH: EVQLVESGGGLVQPGGSLRLSCAASGFTFSTYAMSWVRQAPGKGLEWVASISTGGSTYYPDSVKGRFTISRDNAKNTLYLQMNSLRAEDTAVYYCARDYDGYFDYWGQGTLVTVSS
VL: DIQMTQSPSSLSASVGDRVTITCKASQSVDYDGDSYMNWYQQKPGKAPKLLIYAASNLESGIPSRFSGSGSGTDFTLTISSLQPEDFATYYCQQSNEDPWTFGQGTKVEIKR
On to B1, for which the binding result is “binds”.
